Target: the molecule itself
Test: native MS

B1: recombinant DK fragment (DUF3669 and KRAB domains; residues 1-191) of ZNF746 (domain or fragment)
chain: not shown
stoichiometry N: 3
